From patent US20090191117A1

Target: αvβ3 and αvβ5 integrins on human umbilical vein endothelial cells (human), P06756
Test: cell-based or functional assay

B1: CNTO 95 (antibody, V domains shown)
VH: QVQLVESGGGVVQPGRSRRLSCAASGFTFSRYTMHWVRQAPGKGLEWVAVISFDGSNKYYVDSVKGRFTISRDNSENTLYLQVNILRAEDTAVYYCAREARGSYAFDIWGQGTMVTVSS
VL: EIVLTQSPATLSLSPGERATLSCRASQSVSSYLAWYQQKPGQAPRLLIYDASNRATGIPARFSGSGSGTDFTLTISSLEPEDFAVYYCQQRSNWPPFTFGPGTKVDIK
  HUVEC adhesion to fibrin, percent of adhesion without antibody, antibody at 10 µg/ml: 45.1%
  HUVEC adhesion to fibrinogen, percent of adhesion without antibody, antibody at 10 µg/ml: 34.5%
  HUVEC adhesion to gelatin, percent of adhesion without antibody, antibody at 10 µg/ml: 54.8%
  HUVEC adhesion to vitronectin, percent of adhesion without antibody, antibody at 10 µg/ml: 3.3%
